Patent US20260258115A1 (MAPP BIOPHARMACEUTICAL, published 2026)
Substitutions are numbered along the chain they refer to.

B1: ADI-19510 (antibody, V domains shown)
VH: EVQLVESGGGLVKPGGSLRLSCAASGFSLSSYYMNWVRQAPGKGLEWVSSISSSSTYINYADSVKGRFTISRDNAKNSLYLQMNSLRAEDTAVYYCARGGSITIFGVVFDSWGQGTLVTVSS
VL: SYELTQPPSVSGAPGQRVTISCTGTSSNIGAGYDVHWYQQLPGTAPKLLIYVNSNRPSGVPDRFSGSKSGTSASLAITGLQAEDEADYYCQSYDSSLSGGVFGTGTKVTVL
notes: full-length IgG; also called Ab 210
B2: ADI-24792 (antibody, V domains shown)
VH: EVQLVESGGGLVKPGGSLRLSCAASGFIFSDYYMSWIRQAPGKGLEWVSNISGGSSFTNYADSVKGRFTISRDNAKNSLYLQMNSLRAEDTAVYYCARDLGYCSSNSCLDAFDIWGQGTTVTVSS
VL: B1 VL with S1Q, Y2S, E3V, T25S, V52G, S54T, K68R, G100S, V101L, T104G
notes: full-length IgG
B3: ADI-24805 (antibody, V domains shown)
VH: QVQLVQSGGGLVKPGGSLRLSCAASGFTFSSYSMNWVRQAPGKGLEWVSSISSSSSYIYYADSVKGRFTISRDNAKNSLYLQMNSLRAEDTAVYYCAREGYSSSSGYYYYMDVWGKGTTVTVSS
VL: B1 VL with S1Q, Y2S, E3V, T25S, V52G, G100S
notes: full-length IgG; also called Ab 370
B4: ADI-24817 (antibody, V domains shown)
VH: EVQLVESGGGLVKPGGSLRLSCAASGFTFSSYSMNWVRQAPGKGLEWVSSISSSSSYIYYADSVKGRFTISRDNAKNSLYLQMNSLRAEDTAVYYCARDSMALLYSNYWFDPWGQGTLVTVSS
VL: B1 VL with S1Q, Y2S, E3V, L4V, T25S, V52G, G100S, T104G, V108L
notes: full-length IgG
B5: ADI-24814 (antibody, V domains shown)
VH: EVQLLESGGGVVQPGRSLRLSCAASGFTFNSYTMHWVRQAPGKGLEWVAVISYDGSNKYYADSVKGRFTISRDNSKNTLYLQMNSLRAEDTAVYYCARGRPYDFWSGYYTDYYYYMDVWGKGTTVTVSS
VL: EIVLTQSPGTLSLSPGERATLSCRASQSVYSNYLAWYQQKPGQAPRLLIYGASSRATGIPDRFSGSGSGTDFTLTISRLEPEDFAVYYCQQCGSSWTFGQGTKVEIK
notes: full-length IgG
B6: ADI-25484 (antibody, V domains shown)
VH: EVQLVESGGGLVKPGGSLRLSCAASGFTFSSYSMNWVRQAPGKGLEWVSSISSSSSYIYYADSVKGRFTISRDNAKNSLYLQMNSLRAEDTAVYYCARSIAVAGTGYGMDVWGQGTTVTVSS
VL: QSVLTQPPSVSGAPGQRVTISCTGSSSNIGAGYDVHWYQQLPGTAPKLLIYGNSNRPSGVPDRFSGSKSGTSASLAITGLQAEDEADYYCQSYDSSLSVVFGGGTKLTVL
notes: full-length IgG
B7: ADI-25532 (antibody, V domains shown)
VH: QVQLVQSGGGLVKPGGSLRLSCAASGFTFSSYSMNWVRQAPGKGLEWVSSISSSSSYIYYADSVKGRFTISRDNAKNSLYLQMNSLRAEDTAVYYCARGSSSSWYYFDYWGQGTLVTVSS
VL: QSVVTQPPSVSGAPGQRVTISCTGSSSNIGAGYDVHWYQQLPGTAPKLLIYGNSNRPSGVPDRFSGSKSGTSASLAITGLQAEDEADYYCQSYDSSLSYVFGTGTKVTVL
notes: full-length IgG
B8: ADI-24819 (antibody, V domains shown)
VH: B7 VH with Q1E, V5L, Q6E, G99E, S101G, S103G
VL: B7 VL with V4L, S95G, Y99G, T103G
notes: full-length IgG

Each binder was assayed against RSV F on RSV subtype B virus (mKate-RSV B 18537) (respiratory syncytial virus B 18537, UniProt P13843 26-574) (assay: cell-based or functional assay).

**Q.** With B1 as the binder, how does the “Neut IC50 subtype B” value read?
**A.** The value was 0.83 µg/mL.

**Q.** Which “Neut IC50 subtype B” value does the source give for B2 here?
**A.** The value was 0.19 µg/mL.

**Q.** B3 was tested. Which “Neut IC50 subtype B” value did it give?
**A.** Its value is 0.71 µg/mL.

**Q.** Which “Neut IC50 subtype B” value does the source give for B4 here?
**A.** The value was 4.4 µg/mL.

**Q.** For B5, which “Neut IC50 subtype B” value is on record?
**A.** Its value is 0.32 µg/mL.

**Q.** With B6 as the binder, how does the “Neut IC50 subtype B” value read?
**A.** The value was 8.58 µg/mL.

**Q.** Which “Neut IC50 subtype B” value does the source give for B7 here?
**A.** Its value is 0.05 µg/mL.

**Q.** Which “Neut IC50 subtype B” value does the source give for B8 here?
**A.** Its value is 6.28 µg/mL.

The binders below were run against RSV F on RSV subtype A virus (mKate-RSV A2) (respiratory syncytial virus A2, UniProt P03420 26-574) (assay: cell-based or functional assay).

**Q.** B1 was tested. Which “Neut IC50 subtype A” value did it give?
**A.** Its value is 0.16 µg/mL.

**Q.** Which “Neut IC50 subtype A” value does the source give for B2 here?
**A.** The value was 0.27 µg/mL.

**Q.** With B3 as the binder, how does the “Neut IC50 subtype A” value read?
**A.** Its value is 0.21 µg/mL.

**Q.** For B4, which “Neut IC50 subtype A” value is on record?
**A.** The value was 2.2 µg/mL.

**Q.** With B5 as the binder, how does the “Neut IC50 subtype A” value read?
**A.** Its value is 0.73 µg/mL.

**Q.** For B6, which “Neut IC50 subtype A” value is on record?
**A.** Its value is 15.3 µg/mL.

**Q.** With B7 as the binder, how does the “Neut IC50 subtype A” value read?
**A.** The value was 0.04 µg/mL.

**Q.** Which “Neut IC50 subtype A” value does the source give for B8 here?
**A.** The value was 4.33 µg/mL.

The binders below were run against T1, RSV prefusion F (preF), subtype B (respiratory syncytial virus subtype B) (assay: BLI, IgG).
T1 construct: also called Prefusion subtype B

**Q.** B1 was tested. Which Kd did it give?
**A.** Its Kd is 0.239 nM.

**Q.** B2 was tested. Which Kd did it give?
**A.** The Kd was 1.83 nM.

**Q.** How did the Kd turn out when B3 was run?
**A.** The Kd was 4.88 nM.

**Q.** Which Kd does the source give for B4 here?
**A.** The Kd was 9.23 nM.

**Q.** With B5 as the binder, how does the Kd read?
**A.** Its Kd is 2.39 nM.

**Q.** How did the Kd turn out when B6 was run?
**A.** The Kd was 18.4 nM.

**Q.** For B7, which Kd is on record?
**A.** Its Kd is 1.56 nM.

**Q.** With B8 as the binder, how does the Kd read?
**A.** The Kd was 9.44 nM.

What follows are binders tested against T2, RSV postfusion F (postF), subtype A (respiratory syncytial virus subtype A, UniProt P03420 26-513) (assay: BLI).
T2 construct: also called Postfusion subtype A; F deltaFP

**Q.** Does B1 bind?
**A.** Result: no binding

**Q.** Does B2 bind?
**A.** Result: no binding

**Q.** Does B3 bind?
**A.** Result: no binding

**Q.** Does B4 bind?
**A.** Result: no binding

**Q.** Does B5 bind?
**A.** Result: no binding

**Q.** Does B6 bind?
**A.** Result: no binding

**Q.** Does B7 bind?
**A.** Result: no binding

**Q.** Does B8 bind?
**A.** Result: no binding
